Molecular target: Ub-aminomethylcoumarin (Ub-AMC) (UniProt P0CG47)

BAP1N (1-240), wild-type catalytic domain of BAP1, sequence (Q92560 1-240): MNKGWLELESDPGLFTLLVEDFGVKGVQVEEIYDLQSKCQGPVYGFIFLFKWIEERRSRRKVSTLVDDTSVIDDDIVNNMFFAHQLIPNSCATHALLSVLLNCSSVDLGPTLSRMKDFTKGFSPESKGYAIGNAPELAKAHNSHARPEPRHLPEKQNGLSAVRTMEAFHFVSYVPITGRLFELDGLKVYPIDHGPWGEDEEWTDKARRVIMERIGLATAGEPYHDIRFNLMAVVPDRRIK

Km of Ub-AMC hydrolysis by BAP1N (250 pM enzyme, 100 nM-7.5 µM Ub-AMC, 25°C, double-reciprocal plot): 2.9 µM
Substance: BAP1N (1-240), wild-type catalytic domain of BAP1 (from UniProt Q92560 1-240) (domain or fragment)

From publication PMC5665613
